Test results taken from patent publication US20260258117A1 (ACADEMISCH ZIEKENHUIS LEIDEN H O D N LUMC, published 2026).
Blank lines part the entries; values can stand above or below the binder they belong to.

Key:
C4b-binding protein [1] = target: T1, C4b-binding protein (human, UniProt P04003 49-597; P20851 18-252); test: bispecific ELISA
T1 construct: also called C4BP
T1 sequence (looked up) 1: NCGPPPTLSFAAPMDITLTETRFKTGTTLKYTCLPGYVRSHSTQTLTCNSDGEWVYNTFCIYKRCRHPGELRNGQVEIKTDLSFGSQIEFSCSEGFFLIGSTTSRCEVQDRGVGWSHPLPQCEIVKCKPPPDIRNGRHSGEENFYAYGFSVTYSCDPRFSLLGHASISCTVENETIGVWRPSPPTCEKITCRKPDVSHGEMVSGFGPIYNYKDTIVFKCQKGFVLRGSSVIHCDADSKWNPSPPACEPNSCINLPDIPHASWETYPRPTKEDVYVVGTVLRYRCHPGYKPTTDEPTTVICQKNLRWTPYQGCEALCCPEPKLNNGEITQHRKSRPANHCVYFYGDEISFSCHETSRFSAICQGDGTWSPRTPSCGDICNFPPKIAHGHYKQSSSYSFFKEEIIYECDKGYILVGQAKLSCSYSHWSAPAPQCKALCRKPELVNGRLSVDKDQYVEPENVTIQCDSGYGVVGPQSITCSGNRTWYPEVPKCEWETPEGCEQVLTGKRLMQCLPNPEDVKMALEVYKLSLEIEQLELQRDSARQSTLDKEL
T1 sequence (looked up) 2: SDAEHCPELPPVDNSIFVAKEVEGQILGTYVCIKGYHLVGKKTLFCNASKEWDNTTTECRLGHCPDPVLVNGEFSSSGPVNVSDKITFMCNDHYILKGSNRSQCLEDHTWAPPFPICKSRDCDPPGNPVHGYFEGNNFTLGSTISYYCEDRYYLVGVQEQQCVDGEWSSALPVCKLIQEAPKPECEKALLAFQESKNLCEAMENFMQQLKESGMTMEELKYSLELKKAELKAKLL
Procedure: (§1) BsAbs were tested for binding to both antigens in a bispecific ELISA. MaxiSorp plates (Thermo Scientific, Nunc, 430341) were coated with 50 μL/well BSA-DNP (10 μg/mL, Biosearch Technologies, D-5050-10, conjugation ration 13) in coating buffer (0.1 M Na₂CO₃/NaHCO₃PH 9.6) for 1 hour at 37° C. After every incubation, plates were washed three times with PBS/0.05% Tween 20. Plates were blocked with 100 μL/well PBS/1% BSA for 1 hour at 37° C. After washing, plates were incubated with 50 μL/well (bs) Abs diluted in PBS/0.05% Tween 20/1% BSA (PTB buffer) for 1 hour at 37° C. Next, 1 μg/mL FH (CompTech, A137) or C4BP (CompTech, A109) diluted in PTB buffer was added. FH was detected using goat anti-human FH (Quidel, A312) and HRP-labeled rabbit anti-goat Ig (Dako, P0449), and C4BP was detected using rabbit anti-human C4BP (kind gift from Anna M. Blom, Malmö, Sweden) and HRP-labeled goat anti-rabbit Ig (Dako, P0448), all diluted in PTB buffer. Plates were developed by incubating with 50 μL/well ABTS (Merck, A1888-5G) containing 1:2000 diluted H₂O₂ (Merck, 1072090250), and read at 415 nm using a microplate reader (BIO-RAD iMark). It was confirmed by ELISA that the bsAbs can bind to a specific target (e.g., DNP as a model antigen) as well as FH or C4BP, whereas the parental monospecific antibodies cannot (FIG. 1A).

C4b-binding protein [2] = target: T1, C4b-binding protein; test: bispecific ELISA: BSA-DNP coat, antibody, then C4BP, C4BP detected
Procedure: as §1

[3] = target: T2, Complement Factor H protein (human, UniProt P08603 19-1231); test: bispecific ELISA: BSA-DNP coat, antibody, then FH, FH detected
T2 construct: Plasma protein, bought purified or present in normal human serum; also called FH; CFH
T2 sequence (P08603 19-1231 limits assumed): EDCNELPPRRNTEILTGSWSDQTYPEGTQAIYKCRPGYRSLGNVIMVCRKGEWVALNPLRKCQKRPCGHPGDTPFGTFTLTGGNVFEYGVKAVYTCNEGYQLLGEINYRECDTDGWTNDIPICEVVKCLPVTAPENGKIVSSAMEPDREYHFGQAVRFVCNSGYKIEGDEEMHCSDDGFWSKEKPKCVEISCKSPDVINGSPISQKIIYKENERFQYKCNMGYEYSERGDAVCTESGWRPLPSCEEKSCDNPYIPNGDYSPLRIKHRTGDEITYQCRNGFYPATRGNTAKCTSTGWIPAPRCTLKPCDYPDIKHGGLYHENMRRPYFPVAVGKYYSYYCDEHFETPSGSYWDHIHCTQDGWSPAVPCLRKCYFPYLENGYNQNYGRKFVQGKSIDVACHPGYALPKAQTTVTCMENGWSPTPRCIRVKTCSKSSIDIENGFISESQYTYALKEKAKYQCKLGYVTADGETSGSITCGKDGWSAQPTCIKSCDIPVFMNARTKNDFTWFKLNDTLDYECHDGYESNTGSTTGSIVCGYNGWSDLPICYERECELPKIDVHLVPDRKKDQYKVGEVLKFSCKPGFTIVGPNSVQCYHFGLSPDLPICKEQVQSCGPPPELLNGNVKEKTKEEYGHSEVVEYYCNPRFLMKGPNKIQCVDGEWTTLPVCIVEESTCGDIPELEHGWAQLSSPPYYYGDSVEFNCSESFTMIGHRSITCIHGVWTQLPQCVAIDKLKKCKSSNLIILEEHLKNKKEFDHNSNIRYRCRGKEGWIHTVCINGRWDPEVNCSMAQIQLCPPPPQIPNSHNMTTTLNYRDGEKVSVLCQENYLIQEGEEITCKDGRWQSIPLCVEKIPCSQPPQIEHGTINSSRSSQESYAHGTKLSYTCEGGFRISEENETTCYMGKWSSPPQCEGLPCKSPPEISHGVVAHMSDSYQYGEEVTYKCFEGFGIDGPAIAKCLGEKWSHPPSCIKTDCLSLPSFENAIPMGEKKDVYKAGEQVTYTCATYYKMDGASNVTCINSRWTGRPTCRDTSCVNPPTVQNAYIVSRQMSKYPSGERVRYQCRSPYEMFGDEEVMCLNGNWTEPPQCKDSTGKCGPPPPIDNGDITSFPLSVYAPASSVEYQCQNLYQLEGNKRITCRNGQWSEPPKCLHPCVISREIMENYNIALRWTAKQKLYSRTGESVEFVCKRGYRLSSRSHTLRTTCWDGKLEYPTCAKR
Procedure: as §1

[4] = target: T2, Complement Factor H protein; test: bispecific ELISA and complement activation assay on biotinylated BSA-DNP, FH detected

binding result (C4b-binding protein [1]): binds
B1: Anti-C4BP F405L LALAPG, Anti-DNP K409R LALAPG (bispecific antibody, human IgG1, kappa, L234A L235A)
heavy 1: EVQLVESGGGLVKPGGSLKLSCAVSGFIFSDYYMYWVRQTPEKRLEWVATISDGGVYTYYPDSMKGRFTISRDNAKNNLYLQMSSLKSEDTAMYYCVRGDYYGNSLDYWGQGTSVTVSSASTKGPSVFPLAPSSKSTSGGTAALGCLVKDYFPEPVTVSWNSGALTSGVHTFPAVLQSSGLYSLSSVVTVPSSSLGTQTYICNVNHKPSNTKVDKRVEPKSCDKTHTCPPCPAPEAAGGPSVFLFPPKPKDTLMISRTPEVTCVVVDVSHEDPEVKFNWYVDGVEVHNAKTKPREEQYNSTYRVVSVLTVLHQDWLNGKEYKCKVSNKALGAPIEKTISKAKGQPREPQVYTLPPSREEMTKNQVSLTCLVKGFYPSDIAVEWESNGQPENNYKTTPPVLDSDGSFLLYSKLTVDKSRWQQGNVFSCSVMHEALHNHYTQKSLSLSPGK
light 1: DVVMTQTPLTLSITIGQPASISCKSSQSLLDGDGKTYLNWLLQRPGQSPKRLIYLVSKLDSGVPDRFTGSGSGTDFTLKISRVEAEDLGVYYCCQGTHFPWTFGRGTKLEIKRTVAAPSVFIFPPSDEQLKSGTASVVCLLNNFYPREAKVQWKVDNALQSGNSQESVTEQDSKDSTYSLSSTLTLSKADYEKHKVYACEVTHQGLSSPVTKSFNRGEC
heavy 2: DVRLQESGPGLVKPSQSLSLTCSVTGYSITNSYYWNWIRQFPGNKLEWMVYIGYDGSNNYNPSLKNRISITRDTSKNQFFLKLNSVTTEDTATYYCARATYYGNYRGFAYWGQGTLVTVSAASTKGPSVFPLAPSSKSTSGGTAALGCLVKDYFPEPVTVSWNSGALTSGVHTFPAVLQSSGLYSLSSVVTVPSSSLGTQTYICNVNHKPSNTKVDKRVEPKSCDKTHTCPPCPAPEAAGGPSVFLFPPKPKDTLMISRTPEVTCVVVDVSHEDPEVKFNWYVDGVEVHNAKTKPREEQYNSTYRVVSVLTVLHQDWLNGKEYKCKVSNKALGAPIEKTISKAKGQPREPQVYTLPPSREEMTKNQVSLTCLVKGFYPSDIAVEWESNGQPENNYKTTPPVLDSDGSFFLYSRLTVDKSRWQQGNVFSCSVMHEALHNHYTQKSLSLSPGK
light 2: DIRMTQTTSSLSASLGDRVTISCRASQDISNYLNWYQQKPDGTVKLLIYYTSRLHSGVPSRFSGSGSGTDYSLTISNLEQEDIATYFCQQGNTLPWTFGGGTKLEIKRTVAAPSVFIFPPSDEQLKSGTASVVCLLNNFYPREAKVQWKVDNALQSGNSQESVTEQDSKDSTYSLSSTLTLSKADYEKHKVYACEVTHQGLSSPVTKSFNRGEC
notes: Made by controlled Fab-arm exchange; also called anti-C4BP x anti-DNP

binding result (C4b-binding protein [2]): no binding (tested: 1 µg/mL C4BP)
binding result [3]: no binding (tested: 1 µg/mL FH)
B2: Anti-DNP K409R LALAPG (antibody, human IgG1, kappa, L234A L235A, V domains shown)
VH: DVRLQESGPGLVKPSQSLSLTCSVTGYSITNSYYWNWIRQFPGNKLEWMVYIGYDGSNNYNPSLKNRISITRDTSKNQFFLKLNSVTTEDTATYYCARATYYGNYRGFAYWGQGTLVTVSA
VL: DIRMTQTTSSLSASLGDRVTISCRASQDISNYLNWYQQKPDGTVKLLIYYTSRLHSGVPSRFSGSGSGTDYSLTISNLEQEDIATYFCQQGNTLPWTFGGGTKLEIKR
notes: also called anti-DNP parental Ab; parental monospecific antibody

binding result [4]: binds
B3: Anti-FH F405L LALAPG, Anti-biotin K409R LALAPG (bispecific antibody, human IgG1, kappa, L234A L235A)
heavy 1: EVQLQQSGPELVKPGASVKISCKASGYSFTGYFIHWVKQSHVKSLEWFGRINPYNGATDYNQNFKDKAILTIDESSSTAYMEIHSLTSDDSAVYYCARGLFLDYWGQGTTLTVSSASTKGPSVFPLAPSSKSTSGGTAALGCLVKDYFPEPVTVSWNSGALTSGVHTFPAVLQSSGLYSLSSVVTVPSSSLGTQTYICNVNHKPSNTKVDKRVEPKSCDKTHTCPPCPAPEAAGGPSVFLFPPKPKDTLMISRTPEVTCVVVDVSHEDPEVKFNWYVDGVEVHNAKTKPREEQYNSTYRVVSVLTVLHQDWLNGKEYKCKVSNKALGAPIEKTISKAKGQPREPQVYTLPPSREEMTKNQVSLTCLVKGFYPSDIAVEWESNGQPENNYKTTPPVLDSDGSFLLYSKLTVDKSRWQQGNVFSCSVMHEALHNHYTQKSLSLSPGK
light 1: DILMTQSPSSMSVSLGDTVSITCHASQGITSNIGWLQQKPGKSFKGLIYHGTNLEDGVPSRFSGSGSGADYSLTISSLESEDFADYYCVQYAQFPWTFGGGTKLEIKRTVAAPSVFIFPPSDEQLKSGTASVVCLLNNFYPREAKVQWKVDNALQSGNSQESVTEQDSKDSTYSLSSTLTLSKADYEKHKVYACEVTHQGLSSPVTKSFNRGEC
heavy 2: QVKLQESGPGLVAPSQSLSITCTVSGFSLTAYGVDWVRQPPGKGLEWLGVIWGGGRTNYNSGLMSRLSIRKDNSKSQVFLTMNSLQTDDTAKYYCVKHTNWDGGFAYWGQGTTVTVSSASTKGPSVFPLAPSSKSTSGGTAALGCLVKDYFPEPVTVSWNSGALTSGVHTFPAVLQSSGLYSLSSVVTVPSSSLGTQTYICNVNHKPSNTKVDKRVEPKSCDKTHTCPPCPAPEAAGGPSVFLFPPKPKDTLMISRTPEVTCVVVDVSHEDPEVKFNWYVDGVEVHNAKTKPREEQYNSTYRVVSVLTVLHQDWLNGKEYKCKVSNKALGAPIEKTISKAKGQPREPQVYTLPPSREEMTKNQVSLTCLVKGFYPSDIAVEWESNGQPENNYKTTPPVLDSDGSFFLYSRLTVDKSRWQQGNVFSCSVMHEALHNHYTQKSLSLSPGK
light 2: DVVMTQSPLSLPVSLGDQASISCRSGQGLVYSNGDTYLHWYLQKPGQSPKLLIYKVSNRFSGVPDRFSGSGSGTDFTLKISRVEAEDLGVYFCSQSTHFPFTFGSGTKLEIKRTVAAPSVFIFPPSDEQLKSGTASVVCLLNNFYPREAKVQWKVDNALQSGNSQESVTEQDSKDSTYSLSSTLTLSKADYEKHKVYACEVTHQGLSSPVTKSFNRGEC
notes: Made by controlled Fab-arm exchange; also called anti-FH x anti-biotin
